Results from paper PMC6957217.

Molecular target: E. coli bacteria
Assay: binding to whole E. coli cells in presence of purified E. coli B LPS
Conditions: read off a plot

Substance: Phage T4 LTF needle (gp37; amino acids 799–1026), wild type (from UniProt P03744) N937A
- response (LPS 0.32 ng, parent: est. 32): 90 % Binding
- response (LPS 1.6 ng, parent: est. 47): 92 % Binding
- response (LPS 8 ng, parent: est. 62): 94 % Binding
- response (LPS 40 ng, parent: est. 87): 98 % Binding
- response (LPS 200 ng, parent: est. 130): 110 % Binding
- response (LPS 1000 ng, parent: est. 190): 140 % Binding
- response (LPS 5000 ng, parent: est. 230): 150 % Binding

Substance: Phage T4 LTF needle (gp37; amino acids 799–1026), wild type (from UniProt P03744) G938A
- response (LPS 0.32 ng, parent: est. 32): 90 % Binding
- response (LPS 1.6 ng, parent: est. 47): 85 % Binding
- response (LPS 8 ng, parent: est. 62): 92 % Binding
- response (LPS 40 ng, parent: est. 87): 92 % Binding
- response (LPS 200 ng, parent: est. 130): 100 % Binding
- response (LPS 1000 ng, parent: est. 190): 110 % Binding
- response (LPS 5000 ng, parent: est. 230): 120 % Binding
